According to US20150267177A1:
Where two headings read alike, the source gives them in different places. Blank lines part the entries; values can stand above or below the molecule they belong to.

Key:
[1] = tested on: Act-PB1 (MDH activator protein Act of Bacillus methanolicus PB1)
[2] = target: T1, Act-PB1 (MDH activator protein Act of Bacillus methanolicus PB1); remark: listed apart in the source
T1 sequence (Q8KP10 2-185, looked up): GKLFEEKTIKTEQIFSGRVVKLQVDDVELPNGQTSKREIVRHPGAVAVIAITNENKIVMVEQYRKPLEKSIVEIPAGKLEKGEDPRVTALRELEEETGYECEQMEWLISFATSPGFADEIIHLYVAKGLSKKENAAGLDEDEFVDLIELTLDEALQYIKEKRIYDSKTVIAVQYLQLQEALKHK

[3] = target: T2, Mdh-MGA3 (methanol dehydrogenase Mdh of Bacillus methanolicus MGA3, encoded on plasmid pBM19)
T2 chain: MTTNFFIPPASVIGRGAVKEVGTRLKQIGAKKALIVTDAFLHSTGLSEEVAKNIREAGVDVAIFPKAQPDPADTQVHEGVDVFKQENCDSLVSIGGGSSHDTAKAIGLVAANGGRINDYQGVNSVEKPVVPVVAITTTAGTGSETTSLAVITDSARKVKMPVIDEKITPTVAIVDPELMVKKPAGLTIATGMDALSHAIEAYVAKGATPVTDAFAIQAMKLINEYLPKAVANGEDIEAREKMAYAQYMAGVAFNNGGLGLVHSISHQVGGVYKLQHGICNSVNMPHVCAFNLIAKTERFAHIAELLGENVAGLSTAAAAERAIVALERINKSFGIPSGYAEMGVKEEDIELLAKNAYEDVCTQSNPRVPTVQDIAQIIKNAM

[4] = target: T3, Act-MGA3 (MDH activator protein Act of Bacillus methanolicus MGA3)
T3 sequence (Q8KP10 2-185, looked up): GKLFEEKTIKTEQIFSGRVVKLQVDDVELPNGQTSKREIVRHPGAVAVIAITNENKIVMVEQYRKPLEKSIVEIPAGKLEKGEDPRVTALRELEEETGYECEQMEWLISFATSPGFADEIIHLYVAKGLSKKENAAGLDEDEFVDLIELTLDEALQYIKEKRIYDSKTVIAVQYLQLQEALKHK

[5] = target: T4, Mdh3-MGA3 (methanol dehydrogenase Mdh3 of Bacillus methanolicus MGA3) (Bacillus methanolicus MGA3); test: cell-based or functional assay
T4 sequence: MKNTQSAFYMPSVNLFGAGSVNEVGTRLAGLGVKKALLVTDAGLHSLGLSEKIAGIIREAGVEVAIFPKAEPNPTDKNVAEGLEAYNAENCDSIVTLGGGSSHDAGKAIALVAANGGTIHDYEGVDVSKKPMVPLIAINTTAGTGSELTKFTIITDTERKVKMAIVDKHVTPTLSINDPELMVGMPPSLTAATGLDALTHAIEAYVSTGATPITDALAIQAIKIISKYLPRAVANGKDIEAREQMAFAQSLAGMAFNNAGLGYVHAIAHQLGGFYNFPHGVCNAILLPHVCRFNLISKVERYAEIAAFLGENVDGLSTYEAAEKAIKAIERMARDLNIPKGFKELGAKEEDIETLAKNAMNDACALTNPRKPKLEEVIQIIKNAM

the MGA3 MDHs = test: cell-based or functional assay
[6] = target: T5, Mdh2-MGA3 (methanol dehydrogenase Mdh2 of Bacillus methanolicus MGA3) (Bacillus methanolicus MGA3); test: cell-based or functional assay
T5 sequence: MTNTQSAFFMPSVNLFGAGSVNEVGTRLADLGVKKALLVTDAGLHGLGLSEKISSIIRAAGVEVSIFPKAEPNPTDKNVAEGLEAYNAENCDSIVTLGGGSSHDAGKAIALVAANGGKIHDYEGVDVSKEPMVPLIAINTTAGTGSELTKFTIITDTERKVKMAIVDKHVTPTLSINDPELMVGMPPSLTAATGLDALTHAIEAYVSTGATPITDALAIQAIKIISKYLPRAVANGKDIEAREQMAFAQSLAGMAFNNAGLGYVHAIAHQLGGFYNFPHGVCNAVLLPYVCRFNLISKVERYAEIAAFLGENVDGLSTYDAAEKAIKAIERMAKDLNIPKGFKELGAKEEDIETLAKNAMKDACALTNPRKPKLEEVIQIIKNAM

[7] = target: T6, Mdh-MGA3 (methanol dehydrogenase Mdh of Bacillus methanolicus MGA3, encoded on plasmid pBM19) (Bacillus methanolicus MGA3) (UniProt P31005); test: cell-based or functional assay
T6 sequence: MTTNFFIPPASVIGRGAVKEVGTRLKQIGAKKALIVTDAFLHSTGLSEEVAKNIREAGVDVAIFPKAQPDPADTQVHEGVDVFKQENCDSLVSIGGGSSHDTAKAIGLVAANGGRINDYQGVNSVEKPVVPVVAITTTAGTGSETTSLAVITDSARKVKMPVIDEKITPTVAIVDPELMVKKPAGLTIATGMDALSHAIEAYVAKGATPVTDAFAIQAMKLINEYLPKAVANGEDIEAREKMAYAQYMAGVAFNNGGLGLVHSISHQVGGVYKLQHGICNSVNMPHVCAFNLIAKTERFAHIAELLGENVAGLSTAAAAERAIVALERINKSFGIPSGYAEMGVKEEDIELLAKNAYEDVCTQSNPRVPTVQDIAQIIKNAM

Molecule: Mdh-PB1 (methanol dehydrogenase Mdh of Bacillus methanolicus PB1, encoded on plasmid pBM20)
Km for methanol in the presence of Act (20 ug MDH + 20 ug Act) [1]: 13.9 mM
Vmax with methanol in the presence of Act (20 ug MDH + 20 ug Act) [1]: 0.2 U/mg
Vmax with methanol, with Act against single enzyme assay [1]: The Vmax values were increased 4-6-fold compared to in the single enzyme assays
fold reduction of Km,MeOH by Act [1]: substantially reduced (16-fold and 70-fold, respectively) in the presence of Act

Molecule: Mdh1-PB1 (methanol dehydrogenase Mdh1 of Bacillus methanolicus PB1)
Km for methanol in the presence of Act (20 ug MDH + 20 ug Act) [1]: 2.3 mM
Vmax with methanol in the presence of Act (20 ug MDH + 20 ug Act) [1]: 0.056 U/mg
Vmax with methanol, with Act against single enzyme assay [1]: The Vmax values were increased 4-6-fold compared to in the single enzyme assays
fold reduction of Km,MeOH by Act [1]: substantially reduced (16-fold and 70-fold, respectively) in the presence of Act

B1: Mdh2-PB1 (methanol dehydrogenase Mdh2 of Bacillus methanolicus PB1) (protein)
chain: MTNTQSIFYIPSVNLFGPGSVNEVGTRLAGLGVKKALLVTDAGLHGLGLSEKIASIIREAGVEVLIFPKAEPNPTDKNVAEGLEVYNAENCDSIVTLGGGSSHDAGKGIALVAANGGTIYDYEGVDKSKKPMVPLIAINTTAGTGSELTRFTIITDTERKVKMAIVDKHVTPTLSINDPELMVGMPPSLTAATGLDALTHAIEAYVSTAATPITDALAIQAIKIISKYLPRAFANGKDMEAREQMAFAQSLAGMAFNNASLGYVHAIAHQFGGFYNFPHGVCNAILLPHVCRFNLISKVERFAEIAALLGENVAGLSTREAAEKGIKAIERMAKDLNIPRGFKELGAKEEDIVTLAENAMKDATALTNPRKPKLEEVIQIIKNAM
Km for methanol in the presence of Act (20 ug MDH + 20 ug Act) [2]: 36 mM
Vmax with methanol in the presence of Act (20 ug MDH + 20 ug Act) [2]: 0.24 U/mg
Vmax with methanol, with Act against single enzyme assay [2]: The Vmax values were increased 4-6-fold compared to in the single enzyme assays
fold reduction of Km,MeOH by Act [2]: moderately (4-fold) reduced by Act for Mdh2-PB1

B2: B. subtilis NudF protein (nudF gene product, ADP-ribose pyrophosphatase subfamily of Nudix hydrolases) (protein)
chain: MKSLEEKTIAKEQIFSGKVIDLYVEDVELPNGKASKREIVKHPGAVAVLAVTDEGKIIMVKQFRKPLERTIVEIPAGKLEKGEEPEYTALRELEEETGYTAKKLTKITAFYTSPGFADEIVHVFLAEELSVLEEKRELDEDEFVEVMEVTLEDALKLVESREVYDAKTAYAIQYLQLKEALQAQK
fold stimulation of Mdh activity, ethanol as substrate [3]: Mdh activity was stimulated equally well (about 8-fold) with NudF as with Act

B3: Mdh-MGA3 (methanol dehydrogenase Mdh of Bacillus methanolicus MGA3, encoded on plasmid pBM19) (protein)
chain: MTTNFFIPPASVIGRGAVKEVGTRLKQIGAKKALIVTDAFLHSTGLSEEVAKNIREAGVDVAIFPKAQPDPADTQVHEGVDVFKQENCDSLVSIGGGSSHDTAKAIGLVAANGGRINDYQGVNSVEKPVVPVVAITTTAGTGSETTSLAVITDSARKVKMPVIDEKITPTVAIVDPELMVKKPAGLTIATGMDALSHAIEAYVAKGATPVTDAFAIQAMKLINEYLPKAVANGEDIEAREKMAYAQYMAGVAFNNGGLGLVHSISHQVGGVYKLQHGICNSVNMPHVCAFNLIAKTERFAHIAELLGENVAGLSTAAAAERAIVALERINKSFGIPSGYAEMGVKEEDIELLAKNAYEDVCTQSNPRVPTVQDIAQIIKNAM
Km for methanol in the presence of Act (20 ug MDH + 20 ug Act) [4]: 12 mM
MDH catalytic activity with methanol as substrate, at relative concentrations of the proteins of 1:2-20:1 [4]: Full activation was reached at a relative concentration of between 1:1 and 5:1 and no inhibition due to relative high activator concentrations was observed
Vmax with methanol in the presence of Act (20 ug MDH + 20 ug Act) [4]: 0.5 U/mg
Vmax with methanol, with Act against single enzyme assay [4]: The Vmax values were increased 4-6-fold compared to in the single enzyme assays
fold reduction of Km,MeOH by Act [4]: dramatically reduced (17-fold) to 12 mM for Mdh-MGA3 when Act was added to the reaction
fold stimulation of Mdh activity, ethanol as substrate [4]: Mdh activity was stimulated equally well (about 8-fold) with NudF as with Act
methanol dehydrogenase activity in lysates of recombinant B. subtilis 168, methanol or ethanol as substrate, 50 C [4]: In all cases, methanol dehydrogenase activities were significantly stimulated by Act

Mdh activity in vitro, crude extract of E. coli co-expressing Act, 37 C, +Act [5]: 327 mU/mg
Mdh activity in vitro, crude extract of E. coli co-expressing Act, 45 C, +Act [5]: 867 mU/mg
Mdh activity in vivo, E. coli cells co-expressing Act, 37 C, +Act [5]: 11 mU/mg
Mdh activity in vivo, E. coli cells co-expressing Act, 42 C, +Act [5]: 24 mU/mg
fold increase of catalytic activity, ethanol as substrate (the MGA3 MDHs): 6 to 8 fold
fold induction of MDH activity, methanol as substrate, MDH:Act 1:1 (the MGA3 MDHs): 5 to 7 fold
Mdh activity in vitro, crude extract of E. coli co-expressing Act, 37 C, +Act [6]: 672 mU/mg
Mdh activity in vitro, crude extract of E. coli co-expressing Act, 45 C, +Act [6]: 1910 mU/mg
Mdh activity in vivo, E. coli cells co-expressing Act, 37 C, +Act [6]: 9 mU/mg
Mdh activity in vivo, E. coli cells co-expressing Act, 42 C, +Act [6]: 11.3 mU/mg
Mdh activity in vitro, crude extract of E. coli co-expressing Act, 37 C, +Act [7]: 464 mU/mg
Mdh activity in vitro, crude extract of E. coli co-expressing Act, 45 C, +Act [7]: 1260 mU/mg
Mdh activity in vivo, E. coli cells co-expressing Act, 37 C, +Act [7]: 1 mU/mg
Mdh activity in vivo, E. coli cells co-expressing Act, 42 C, +Act [7]: 1 mU/mg
B4: Act-MGA3 (MDH activator protein Act of Bacillus methanolicus MGA3) (protein, UniProt Q8KP10 2-185, looked up)
Methanol dehydrogenase activator: GKLFEEKTIKTEQIFSGRVVKLQVDDVELPNGQTSKREIVRHPGAVAVIAITNENKIVMVEQYRKPLEKSIVEIPAGKLEKGEDPRVTALRELEEETGYECEQMEWLISFATSPGFADEIIHLYVAKGLSKKENAAGLDEDEFVDLIELTLDEALQYIKEKRIYDSKTVIAVQYLQLQEALKHK

B5: Mdh2-MGA3 (methanol dehydrogenase Mdh2 of Bacillus methanolicus MGA3) (protein)
chain: MTNTQSAFFMPSVNLFGAGSVNEVGTRLADLGVKKALLVTDAGLHGLGLSEKISSIIRAAGVEVSIFPKAEPNPTDKNVAEGLEAYNAENCDSIVTLGGGSSHDAGKAIALVAANGGKIHDYEGVDVSKEPMVPLIAINTTAGTGSELTKFTIITDTERKVKMAIVDKHVTPTLSINDPELMVGMPPSLTAATGLDALTHAIEAYVSTGATPITDALAIQAIKIISKYLPRAVANGKDIEAREQMAFAQSLAGMAFNNAGLGYVHAIAHQLGGFYNFPHGVCNAVLLPYVCRFNLISKVERYAEIAAFLGENVDGLSTYDAAEKAIKAIERMAKDLNIPKGFKELGAKEEDIETLAKNAMKDACALTNPRKPKLEEVIQIIKNAM
Km for methanol in the presence of Act (20 ug MDH + 20 ug Act) [4]: 200 mM
Vmax with methanol in the presence of Act (20 ug MDH + 20 ug Act) [4]: 0.15 U/mg
Vmax with methanol, with Act against single enzyme assay [4]: The Vmax values were increased 4-6-fold compared to in the single enzyme assays
change of Km,MeOH by Act [4]: remained essentially the same as when tested without Act
methanol dehydrogenase activity in lysates of recombinant B. subtilis 168, methanol or ethanol as substrate, 50 C [4]: In all cases, methanol dehydrogenase activities were significantly stimulated by Act

B6: Mdh3-MGA3 (methanol dehydrogenase Mdh3 of Bacillus methanolicus MGA3) (protein)
chain: MKNTQSAFYMPSVNLFGAGSVNEVGTRLAGLGVKKALLVTDAGLHSLGLSEKIAGIIREAGVEVAIFPKAEPNPTDKNVAEGLEAYNAENCDSIVTLGGGSSHDAGKAIALVAANGGTIHDYEGVDVSKKPMVPLIAINTTAGTGSELTKFTIITDTERKVKMAIVDKHVTPTLSINDPELMVGMPPSLTAATGLDALTHAIEAYVSTGATPITDALAIQAIKIISKYLPRAVANGKDIEAREQMAFAQSLAGMAFNNAGLGYVHAIAHQLGGFYNFPHGVCNAILLPHVCRFNLISKVERYAEIAAFLGENVDGLSTYEAAEKAIKAIERMARDLNIPKGFKELGAKEEDIETLAKNAMNDACALTNPRKPKLEEVIQIIKNAM
Km for methanol in the presence of Act (20 ug MDH + 20 ug Act) [4]: 150 mM
Vmax with methanol in the presence of Act (20 ug MDH + 20 ug Act) [4]: 0.45 U/mg
Vmax with methanol, with Act against single enzyme assay [4]: The Vmax values were increased 4-6-fold compared to in the single enzyme assays
change of Km,MeOH by Act [4]: remained essentially the same as when tested without Act
methanol dehydrogenase activity in lysates of recombinant B. subtilis 168, methanol or ethanol as substrate, 50 C [4]: In all cases, methanol dehydrogenase activities were significantly stimulated by Act
